# Assay results: IntAct's records for PubMed 24290141
# B1: Autophagy-related protein 13 (Homo sapiens), O75143 (parent)
# chain: METDLNSQDRKDLDKFIKFFALKTVQVIVQARLGEKICTRSSSSPTGSDWFNLAIKDIPEVTHEAKKALAGQLPAVGRSMCVEISLKTSEGDSMELEIWCLEMNEKCDKEIKVSYTVYNRLSLLLKSLLAITRVTPAYRLSRKQGHEYVILYRIYFGEVQLSGLGEGFQTVRVGTVGTPVGTITLSCAYRINLAFMSTRQFERTPPIMGIIIDHFVDRPYPSSSPMHPCNYRTAGEDTGVIYPSVEDSQEVCTTSFSTSPPSQLSSSRLSYQPAALGVGSADLAYPVVFAAGLNATHPHQLMVPGKEGGVPLAPNQPVHGTQADQERLATCTPSDRTHCAATPSSSEDTETVSNSSEGRASPHDVLETIFVRKVGAFVNKPINQVTLTSLDIPFAMFAPKNLELEDTDPMVNPPDSPETESPLQGSLHSDGSSGGSSGNTHDDFVMIDFKPAFSKDDILPMDLGTFYREFQNPPQLSSLSIDIGAQSMAEDLDSLPEKLAVHEKNVREFDAFVETLQ
# Variants of: B1
# Details: with MAP1LC3A
row,effect of a mutation on the interaction,Variant
1,decreasing interaction strength,M446A
2,decreasing interaction strength,V445A
3,decreasing interaction strength,I447A
4,decreasing interaction strength,F444A
5,decreasing interaction strength,D442A
6,decreasing interaction strength,D443A
